According to FireProtDB (doi:10.1021/bi002792f):

B1: Lysozyme C, P61626 (parent)
chain: MKALIVLGLVLLSVTVQGKVFERCELARTLKRLGMDGYRGISLANWMCLAKWESGYNTRATNYNAGDRSTDYGIFQINSRYWCNDGKTPGAVNACHLSCSALLQDNIADAVACAKRVVRDPQGIRAWVAWRNRCQNRDVRQYVQGCGV

Variants of: B1
Settings: Homo sapiens, pH 2.7, Thermal, DSC, Gly-HCl 0.05 M, reversible: yes, structure 1LZ1, whole UniProt chain shown

Variant | heat capacity change of unfolding (64.9 °C) [kcal/mol/K] | unfolding enthalpy (calorimetric) (64.9 °C) [kcal/mol] | Tm [°C] | change of melting temperature, mutant - wild type (higher = more stable) [°C] | heat capacity change of unfolding [kcal/mol/K] | ddG of mutation (higher = less stable) (64.9 °C) [kcal/mol]
V118T | 1.53 | 107 | – | – | – | –
V117T | 1.41 | 104 | 63.3 | -1.6 | 1.41 | –
L26T | 1.39 | 107 | 52.5 | -12.4 | 1.39 | 3.73
A27S | 1.27 | 106 | 64.8 | -0.1 | 1.27 | –
A50S | 1.65 | 111 | 63.9 | -1 | 1.65 | 0.33
V111T | 1.12 | 101 | 62.6 | -2.3 | 1.12 | 0.67
A110S | 2.01 | 104 | 67.5 | 2.6 | 2.01 | –
A114S | 1.29 | 103 | 61.6 | -3.3 | 1.29 | 1
